This note sets out measurements from the supplement of paper PMC7877785.

The data set is described as follows: self-splicing fitness, log relative to wild type (ln ratio); higher = more splicing; Tetrahymena group I intron in knt gene, E. coli kanamycin selection, DiMSum; sequences stand for … in CUCUCU…GGAGGGAAAAGUUAUCAGGCAUGCACCUGGUAGCUAGUCUUUAAACCAAUAGAUUGCAUCGGUUUAAAAGGCAAGACCGUCAAAUUGCGGGAAAGGGGUCAACAGCCGUUCAGUACCAAGUCUCAGGGGAAACUUUGAGAUGGCCUUGCAAAGGGUAUGGUAAUAAGCUGACGGACAUGGUCCUAACCACGCAGCCAAGUCCUAAGUCAACAGAUCUUCUGUUGAUAUGGAUGCAGUUCACAGACUAAAUGUCGGUCGGGGAAGAUGUAUUCUUCUCAUAAGAUAUAGUCGGACCUCUCCUUAAUGGGAGCUAGCGGAUGAAGUGAUGCAACACUGGAGCCGCUGGGAACUAAUUUGUAUGCGAAAGUAUAUUGAUUAGUUUUGGAGUACUCGUGGUCG
A digest of the protocol:
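Fitness was computed with DiMSum as the error-weighted combination of replicate fold changes, kanamycin versus none, each normalised to wild type. The library randomised all eight intron nucleotides of the P1ex region, with the intron placed in the knt kanamycin-resistance gene on pET-22b(+) in E. coli BL21(DE3). Six replicate transformations were grown overnight at 37°C or 30°C on LB agar with or without 25 μg/mL kanamycin, plus 100 μg/mL carbenicillin, 50 μM IPTG and 0.2% rhamnose. Pooled colonies were amplicon-sequenced on an Illumina HiSeq 2500.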

± gives the uncertainty stated by the source.

On to AUUGAGCAAUAUUACGAGAA, for which the “self-splicing fitness (ln)” value by setting is: (30 °C) -2.35 ± 0.45; (37 °C) -2.62 ± 0.26.

For the sequence AGCUAGCAAUAUUACGCGCC, the “self-splicing fitness (ln)” value was -2.25 ± 0.23 (30 °C) and -2.04 ± 0.29 (37 °C). In the case of CGUAAGCAAUAUUACGAUCC, the “self-splicing fitness (ln)” value (30 °C) was -2.82 ± 0.33 and the “self-splicing fitness (ln)” value (37 °C) was -1.82 ± 0.3.

With UAAUAGCAAUAUUACGGAUA, the “self-splicing fitness (ln)” value runs as follows: (30 °C) -1.97 ± 0.17; (37 °C) -1.83 ± 0.2. For AAAAAGCAAUAUUACGGAUG, in that order: -2.17 ± 0.094 and -1.23 ± 0.095. For CGUCAGCAAUAUUACGGACA, in that order: -0.0785 ± 0.094 and 0.394 ± 0.15. For ACUGAGCAAUAUUACGCGAA, in that order: -3.01 ± 0.33 and -2.77 ± 0.36. With AACUAGCAAUAUUACGCACA, the “self-splicing fitness (ln)” value is, setting by setting: (30 °C) -0.559 ± 0.061; (37 °C) 0.145 ± 0.077.

Turning to AGAAAGCAAUAUUACGUUUC, the “self-splicing fitness (ln)” value (30 °C) is -3.82 ± 0.15 and the “self-splicing fitness (ln)” value (37 °C) is -2.09 ± 0.1. For GUAUAGCAAUAUUACGGCUG, in that order: -1.2 ± 0.079 and -0.532 ± 0.097. For GUGAAGCAAUAUUACGCUUA, in that order: -1.49 ± 0.087 and -0.459 ± 0.13. For CUGUAGCAAUAUUACGCUUU, in that order: -3.83 ± 0.17 and -3.19 ± 0.21. Turning to UAGAAGCAAUAUUACGUAAA, the “self-splicing fitness (ln)” value runs as follows: (30 °C) -2.04 ± 0.14; (37 °C) -1.33 ± 0.14. For GAGCAGCAAUAUUACGUUGA, in that order: -2.38 ± 0.17 and -1.32 ± 0.13.

On to GGUAAGCAAUAUUACGGUAC, for which the “self-splicing fitness (ln)” value (30 °C) is -1.32 ± 0.08 and the “self-splicing fitness (ln)” value (37 °C) is -0.815 ± 0.13. For GGUCAGCAAUAUUACGGGGA, in that order: -1.25 ± 0.17 and -1.87 ± 0.2.

UCUCAGCAAUAUUACGCAAC: the “self-splicing fitness (ln)” value (30 °C) was -4.04 ± 0.39. As to CAGCAGCAAUAUUACGACAA, the “self-splicing fitness (ln)” value is, setting by setting: (30 °C) -3.11 ± 0.39; (37 °C) -1.67 ± 0.23. For AUACAGCAAUAUUACGCUUC, in that order: -3.06 ± 0.17 and -3.25 ± 0.24. For GUCGAGCAAUAUUACGGGGU, in that order: -1.92 ± 0.16 and -1.74 ± 0.18.

With CGUAAGCAAUAUUACGACCG, the “self-splicing fitness (ln)” value is -0.867 ± 0.1 (30 °C) and -0.46 ± 0.19 (37 °C). For CUCGAGCAAUAUUACGGGCG, in that order: -2.65 ± 0.17 and -2.1 ± 0.25. For CGAAAGCAAUAUUACGGCGC, in that order: -1.14 ± 0.13 and -0.908 ± 0.15. Turning to CUAGAGCAAUAUUACGUCCC, the “self-splicing fitness (ln)” value (37 °C) is -1.71 ± 0.47.

In the case of UUAAAGCAAUAUUACGCCGU, the “self-splicing fitness (ln)” value (30 °C) is -0.966 ± 0.18 and the “self-splicing fitness (ln)” value (37 °C) is -0.394 ± 0.25. For UGAGAGCAAUAUUACGACAG, in that order: -4.41 ± 0.39 and -3.07 ± 0.34. For ACUAAGCAAUAUUACGUAUU, in that order: -2.09 ± 0.082 and -1.9 ± 0.11. For UUACAGCAAUAUUACGGGAG, in that order: -1.23 ± 0.071 and -0.858 ± 0.077.

Turning to ACAAAGCAAUAUUACGCUUC, the “self-splicing fitness (ln)” value (30 °C) is -3.15 ± 0.14 and the “self-splicing fitness (ln)” value (37 °C) is -2.46 ± 0.16. For CGACAGCAAUAUUACGAACC, in that order: -3.27 ± 0.27 and -0.556 ± 0.2. For GAAUAGCAAUAUUACGUCCG, in that order: -1.39 ± 0.15 and -1.33 ± 0.22. For CGCGAGCAAUAUUACGUGUC, in that order: -3.46 ± 0.19 and -2.6 ± 0.2. Take AUAGAGCAAUAUUACGCAAA: the “self-splicing fitness (ln)” value is, setting by setting: (30 °C) -2.79 ± 0.2; (37 °C) -1.03 ± 0.18. In the case of GUUCAGCAAUAUUACGUGGA, the “self-splicing fitness (ln)” value by setting is: (30 °C) -3.5 ± 0.41; (37 °C) -1.42 ± 0.2. For CUUUAGCAAUAUUACGAUGU, in that order: -3.36 ± 0.28 and -2.36 ± 0.24. For ACCGAGCAAUAUUACGUACG, in that order: -3.75 ± 0.28 and -2.57 ± 0.22. For UACUAGCAAUAUUACGUAUC, in that order: -2.06 ± 0.2 and -2.9 ± 0.4.

CGGCAGCAAUAUUACGGGAG: the “self-splicing fitness (ln)” value reads like this: (30 °C) -2.36 ± 0.15; (37 °C) -1.77 ± 0.18. For UACCAGCAAUAUUACGGGUC, in that order: -2.46 ± 0.13 and -1.99 ± 0.18. For ACGGAGCAAUAUUACGGUCC, in that order: -3.38 ± 0.36 and -1.39 ± 0.34.

With GGCGAGCAAUAUUACGGCCC, where the note is “30 °C”, the “self-splicing fitness (ln)” value stood at 0.209 ± 0.31. Turning to CACAAGCAAUAUUACGAUAU, the “self-splicing fitness (ln)” value was -3.34 ± 0.21 (30 °C) and -2.52 ± 0.15 (37 °C). For GUGAAGCAAUAUUACGCUGA, in that order: -1.32 ± 0.092 and -1.09 ± 0.13. Take UCAUAGCAAUAUUACGGCGC: the “self-splicing fitness (ln)” value (30 °C) was -2.63 ± 0.31. On to UAAGAGCAAUAUUACGGCGG, for which the “self-splicing fitness (ln)” value runs as follows: (30 °C) -2.73 ± 0.22; (37 °C) -1.62 ± 0.22. On to CUUUAGCAAUAUUACGCUCG, for which the “self-splicing fitness (ln)” value reads like this: (30 °C) -1.68 ± 0.15; (37 °C) -0.602 ± 0.18.

Turning to UGCGAGCAAUAUUACGAGUA, the “self-splicing fitness (ln)” value was -0.846 ± 0.14 (30 °C) and -1.84 ± 0.2 (37 °C).

Regarding GACAAGCAAUAUUACGGGCC, the “self-splicing fitness (ln)” value (30 °C) is -1.81 ± 0.18 and the “self-splicing fitness (ln)” value (37 °C) was -1.96 ± 0.17. For UAUAAGCAAUAUUACGAUUC, in that order: -2.68 ± 0.15 and -1.57 ± 0.32. Turning to GAUCAGCAAUAUUACGCAUC, the “self-splicing fitness (ln)” value was -4.75 ± 0.31 (30 °C) and -3.11 ± 0.24 (37 °C). For GCACAGCAAUAUUACGCUGG, in that order: -3.29 ± 0.18 and -1.92 ± 0.15. Regarding GGCGAGCAAUAUUACGAAGA, the “self-splicing fitness (ln)” value (37 °C) was -1.49 ± 0.47. For the sequence GUGCAGCAAUAUUACGGUCA, the “self-splicing fitness (ln)” value is -1.46 ± 0.12 (30 °C) and -1.16 ± 0.11 (37 °C). As to GUACAGCAAUAUUACGACGA, the “self-splicing fitness (ln)” value (30 °C) was -1.54 ± 0.14 and the “self-splicing fitness (ln)” value (37 °C) was -1.07 ± 0.12.

Consider AACUAGCAAUAUUACGGGCU, for which the “self-splicing fitness (ln)” value is -1.29 ± 0.11 (30 °C) and -1.19 ± 0.16 (37 °C). For CCCGAGCAAUAUUACGGGGA, in that order: -3.49 ± 0.21 and -2.14 ± 0.11. As to UGAGAGCAAUAUUACGCCUG, the “self-splicing fitness (ln)” value by setting is: (30 °C) -2.46 ± 0.21; (37 °C) -1.91 ± 0.32. For GAUGAGCAAUAUUACGCAUG, in that order: -1.61 ± 0.13 and -2.14 ± 0.2.

With ACACAGCAAUAUUACGCGAA, the “self-splicing fitness (ln)” value runs as follows: (30 °C) -2.47 ± 0.12; (37 °C) -1.4 ± 0.12. UAUAAGCAAUAUUACGGCAC: the “self-splicing fitness (ln)” value (30 °C) was -1.53 ± 0.17 and the “self-splicing fitness (ln)” value (37 °C) is -0.422 ± 0.23. Consider CAGUAGCAAUAUUACGAAGG, for which the “self-splicing fitness (ln)” value by setting is: (30 °C) -1.25 ± 0.12; (37 °C) -1.8 ± 0.14. With UAUCAGCAAUAUUACGGAAG, the “self-splicing fitness (ln)” value reads like this: (30 °C) -0.901 ± 0.1; (37 °C) -0.651 ± 0.12. As to CCAGAGCAAUAUUACGCCGC, the “self-splicing fitness (ln)” value (37 °C) was -0.773 ± 0.45.

Consider UGGUAGCAAUAUUACGUCGG, for which the “self-splicing fitness (ln)” value runs as follows: (30 °C) -1.21 ± 0.12; (37 °C) -0.18 ± 0.15.

GUUUAGCAAUAUUACGUCUG: the “self-splicing fitness (ln)” value reads like this: (30 °C) -2.05 ± 0.18; (37 °C) -1.84 ± 0.3. For UUUCAGCAAUAUUACGUCGC, in that order: -3.67 ± 0.2 and -2.73 ± 0.24. For GGAAAGCAAUAUUACGCCGU, in that order: -1.5 ± 0.26 and 0.351 ± 0.28. On to UGCUAGCAAUAUUACGGCUU, for which the “self-splicing fitness (ln)” value was -0.619 ± 0.13 (30 °C) and -1.06 ± 0.15 (37 °C). For ACCGAGCAAUAUUACGCUCA, in that order: -1.14 ± 0.13 and -0.577 ± 0.2. For CGCCAGCAAUAUUACGGUGG, in that order: -2.06 ± 0.09 and -2.56 ± 0.18. For GCCCAGCAAUAUUACGUCGC, in that order: -1.66 ± 0.095 and -0.355 ± 0.092. Take GCGGAGCAAUAUUACGCGCU: where the note is “30 °C”, the “self-splicing fitness (ln)” value is -1.88 ± 0.4.

For CACCAGCAAUAUUACGGCAU, the “self-splicing fitness (ln)” value (30 °C) is -2.64 ± 0.066 and the “self-splicing fitness (ln)” value (37 °C) is -0.735 ± 0.069. For AUGAAGCAAUAUUACGUUGC, in that order: -3.64 ± 0.2 and -3.01 ± 0.26. UACGAGCAAUAUUACGCACC: under “30 °C”, the “self-splicing fitness (ln)” value was -1.91 ± 0.39. With UCUAAGCAAUAUUACGCAGC, the “self-splicing fitness (ln)” value (30 °C) was -1.83 ± 0.23 and the “self-splicing fitness (ln)” value (37 °C) is -2.07 ± 0.31.

With UACAAGCAAUAUUACGCUCA, the “self-splicing fitness (ln)” value was -0.545 ± 0.087 (30 °C) and -0.0026 ± 0.12 (37 °C).
